Results: patent US20090169546A1

T1: recombinant HMG1 produced in E. coli as calmodulin binding protein (CBP) fusion (human)
T1 chain: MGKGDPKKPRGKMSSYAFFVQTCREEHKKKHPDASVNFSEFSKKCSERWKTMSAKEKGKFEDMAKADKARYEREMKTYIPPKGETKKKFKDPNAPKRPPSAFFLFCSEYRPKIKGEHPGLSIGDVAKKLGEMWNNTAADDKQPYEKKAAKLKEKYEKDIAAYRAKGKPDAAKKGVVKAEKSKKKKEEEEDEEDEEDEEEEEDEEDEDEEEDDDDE


Molecular target: T1, recombinant HMG1 produced in E. coli as …
Experiment: BIAcore 3000; mAb amine-coupled to CM5, HMG1 injected in two-fold dilutions; steady-state model
Details: remark: other sources report otherwise

Kd [nM] | Binder
331 | anti-HMG1 antibody S17 (antibody, V domains shown) VH: EVQLLESGGGLVQPGGSLRLSCAASGFTFSYYDMHWVRQAPGKGLEWVSRISPSGGYTWYADSVKGRFTISRDNSKNTLYLQMNSLRAEDTAVYYCTRGRYTSGWHEYFDPWGQGTLVTVSS VL: AQDIQMTQSPSSLSASVGDRVTITCRASQSIGTYLNWYQQKPGTAPKVLIYAASSLQSGVPSRFSGSGSGTDFTLTISSLQPEDFSTYYCQQSYNTPRTFGQGTKLEIK
101 | anti-HMG1 antibody G2 (antibody, V domains shown) VH: EVQLLESGGGLVQPGGSLRLSCAASGFTFSWYKMQWVRQAPGKGLEWVSGISPSGGSTAYADSVKGRFTISRDNSKNTLYLQMNSLRAEDTAVYYCAKMGLFNTGNSYVDYWGQGTLVTVSS VL: AQSELTQPPSVSEAPGQRVTISCSGSTSNIGNNAVIWYQQLPGKAPKLLIYYDDLLPSGVSDRFSGSKSGTSGSLAISGLQSEDEADYYCASWDDNLNGPLFGGGTKLTVL
114 | anti-HMG1 antibody G20 (antibody, V domains shown) VH: EVQLLESGGGLVQPGGSLRLSCAASGFTFSWYDMFWVRQAPGKGLEWVSWISPSGGYTKYADSVKGRFTISRDNSKNTLYLQMNSLRAEDTAMYYCARSGLDYYDSSGYLDAFDIWGQGTMVTVSS VL: AQDIQMTQSPSSVSASVGDRVTITCRASQDVSIWLAWYQQKPGKAPKLLIFGASRLQSGVPSRFSGSRSGADFTLTIDSVQPEDFASYYCQQADSFPLTFGGGTKVEIK
